Laboratory results reported in article PMC2132943.

Target: T1, CXCR4 receptor (human (endogenous in HEK-293)), P61073
T1 chain: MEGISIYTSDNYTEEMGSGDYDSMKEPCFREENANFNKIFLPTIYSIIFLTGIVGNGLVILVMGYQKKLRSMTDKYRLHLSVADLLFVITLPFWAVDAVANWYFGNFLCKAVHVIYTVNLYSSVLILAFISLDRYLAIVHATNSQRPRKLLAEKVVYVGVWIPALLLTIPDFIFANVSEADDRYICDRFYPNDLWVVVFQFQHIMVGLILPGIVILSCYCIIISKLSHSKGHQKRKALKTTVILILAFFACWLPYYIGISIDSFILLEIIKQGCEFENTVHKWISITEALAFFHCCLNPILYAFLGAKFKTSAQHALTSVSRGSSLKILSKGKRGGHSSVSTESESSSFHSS
Assay: cross-linking
Settings: remark: other sources report otherwise

stoichiometry N: 2
B1: CXCR4 receptor, P61073 1-352 (receptor)
chain: MEGISIYTSDNYTEEMGSGDYDSMKEPCFREENANFNKIFLPTIYSIIFLTGIVGNGLVILVMGYQKKLRSMTDKYRLHLSVADLLFVITLPFWAVDAVANWYFGNFLCKAVHVIYTVNLYSSVLILAFISLDRYLAIVHATNSQRPRKLLAEKVVYVGVWIPALLLTIPDFIFANVSEADDRYICDRFYPNDLWVVVFQFQHIMVGLILPGIVILSCYCIIISKLSHSKGHQKRKALKTTVILILAFFACWLPYYIGISIDSFILLEIIKQGCEFENTVHKWISITEALAFFHCCLNPILYAFLGAKFKTSAQHALTSVSRGSSLKILSKGKRGGHSSVSTESESSSFHSS
